According to patent US8119766 (UNIVERSITY OF IOWA RESEARCH FOUNDATION, dated 2012):
Values belong to the molecule of their own block, whether it stands above or below them.

Assays:
[1] = biological target: LARGE-modified DGFc5 (human); assay: solid-phase laminin-1 binding assay, nonlinear regression (FIG. 9C)
[2] = biological target: full-length α-DG-IgG Fc fusion protein (DGFc5), secreted form from conditioned medium (human); assay: as above
[3] = biological target: full-length α-DG-IgG Fc fusion protein (DGFc5), secreted form from conditioned medium (human); assay: solid-phase binding of laminin-1, nonlinear regression (FIG. 8C)
laminin-1 [4] = biological target: T1, laminin-1 (mouse, UniProt P19137 25-3083; P02469 22-1786; P02468 34-1607); assay: laminin-1 overlay, with LARGE co-expression
T1 construct: also called mouse EHS laminin-1; biotinylated laminin-1

laminin-1 [5] = biological target: T1, laminin-1; assay: solid-phase binding of laminin-1, nonlinear regression (FIG. 8C)
laminin-1 [6] = biological target: T1, laminin-1; assay: laminin overlay

Kd [1]: 1.6 nM
Kd [2]: 3.1 nM
Kd [3]: 1.1 nM
Molecule: laminin-1 (from UniProt P19137 25-3083; P02469 22-1786; P02468 34-1607) (ligand)

binding result (laminin-1 [4]): no binding
B1: DGFc6, secreted form (Fc fusion, UniProt Q28685 317-653, looked up)
chain: TPTPVTAIGPPTTAIQEPPSRIVPTPTSPAIAPPTETMAPPVRDPVPGKPTVTTRTRGAIIQTPTLGPIQPTRVSDAGTVVSGQIRATVTIPGYVEPTAVATPPTTTTKKPRVSTPKPATPSTDSSATTTRRPTKKPRTPRPVPRVTTKAPITRLETASPPTRIRTTTSGVPRGGEPNQRPELKNHIDRVDAWVGTYFEVKIPSDTFYDKEDTTTDKLKLTLKLREQQLVGEKSWVQFNSNSQLMYGLPDSSHVGKHEYFMHATDKGGLSAVDAFEIHVHKRPQGDKAPARFKAKFVGDPAPVVNDIHKKIALVKKLAFAFGDRNCSTVTLQNITRG
notes: domain: mucin-like domain and C-terminal domain; Tested with and without LARGE co-expression; not shown: IgG Fc portion

Kd (laminin-1 [5]): 0.4 nM
B2: native α-DG (receptor, rabbit, UniProt Q28685 30-653, looked up)
chain: HWPSEPSEAVRDWENQLEASMHSVLSDLHEALPTVVGIPDGTAVVGRSFRVTIPTDLIGSSGEVIKVSTAGKEVLPSWLHWDPQSHTLEGLPLDTDKGVHYISVSAAQLDANGSHIPQTSSVFSIEVYPEDHSEPQSVRAASPDLGEAAASACAAEEPVTVLTVILDADLTKMTPKQRIDLLHRMQSFSEVELHNMKLVPVVNNRLFDMSAFMAGPGNAKKVVENGALLSWKLGCSLNQNSVPDIRGVEAPAREGTMSAQLGYPVVGWHIANKKPPLPKRIRRQIHATPTPVTAIGPPTTAIQEPPSRIVPTPTSPAIAPPTETMAPPVRDPVPGKPTVTTRTRGAIIQTPTLGPIQPTRVSDAGTVVSGQIRATVTIPGYVEPTAVATPPTTTTKKPRVSTPKPATPSTDSSATTTRRPTKKPRTPRPVPRVTTKAPITRLETASPPTRIRTTTSGVPRGGEPNQRPELKNHIDRVDAWVGTYFEVKIPSDTFYDKEDTTTDKLKLTLKLREQQLVGEKSWVQFNSNSQLMYGLPDSSHVGKHEYFMHATDKGGLSAVDAFEIHVHKRPQGDKAPARFKAKFVGDPAPVVNDIHKKIALVKKLAFAFGDRNCSTVTLQNITRG
modifications: native glycosylation; sites not stated
notes: mature; also called native α-dystroglycan purified from rabbit skeletal muscle

binding result (laminin-1 [6]): no binding
B3: DGFc2 prepared from cell lysate (Fc fusion, UniProt Q28685 30-316, looked up)
chain: HWPSEPSEAVRDWENQLEASMHSVLSDLHEALPTVVGIPDGTAVVGRSFRVTIPTDLIGSSGEVIKVSTAGKEVLPSWLHWDPQSHTLEGLPLDTDKGVHYISVSAAQLDANGSHIPQTSSVFSIEVYPEDHSEPQSVRAASPDLGEAAASACAAEEPVTVLTVILDADLTKMTPKQRIDLLHRMQSFSEVELHNMKLVPVVNNRLFDMSAFMAGPGNAKKVVENGALLSWKLGCSLNQNSVPDIRGVEAPAREGTMSAQLGYPVVGWHIANKKPPLPKRIRRQIHA
notes: domain: N-terminal domain; About 65 kDa; also called DGFc2 (cell lysate); not shown: IgG Fc portion

binding result (laminin-1 [6]): no binding
B4: secreted DGFc2 from cells cultured with CMK (Fc fusion, UniProt Q28685 30-316, looked up)
chain: HWPSEPSEAVRDWENQLEASMHSVLSDLHEALPTVVGIPDGTAVVGRSFRVTIPTDLIGSSGEVIKVSTAGKEVLPSWLHWDPQSHTLEGLPLDTDKGVHYISVSAAQLDANGSHIPQTSSVFSIEVYPEDHSEPQSVRAASPDLGEAAASACAAEEPVTVLTVILDADLTKMTPKQRIDLLHRMQSFSEVELHNMKLVPVVNNRLFDMSAFMAGPGNAKKVVENGALLSWKLGCSLNQNSVPDIRGVEAPAREGTMSAQLGYPVVGWHIANKKPPLPKRIRRQIHA
notes: domain: N-terminal domain; Migrated at the same size (~65 kDa) as DGFc2 from cell lysate; also called DGFc2 (CMK-treated, secreted); not shown: IgG Fc portion
